According to the DeepSol protein solubility set:

Assay: soluble on expression in E. coli; label from the status in PepcDB or PDB records

Soluble on expression in E. coli, soluble:
MSLKEFDFIKRYLQTGTDNDVVLGIGDDAAIVRPREGFDLCFSADMLLKDRHFFADVKPEDLAWKVLAVNISDMAAMGAIPRWVLLSAALPELDEVWLKRFCGSFFGLAKKFGVTLIGGDTTKGDMAFNVTIIGELPKGRALRRDAAVAGDDIWVSGRIGMAAAALNCRLKRCVLPDEVFAECEQKLLHPEPRVGLGLALLPFARAAQDVSDGLAQDLGHILTASGKGAEIWADSLPSLSVLKDILPRAQWLSYTLAGGDDYELVFTAPESCRSRVFDAAERCGVPVTRIGKINGGCRLKVLDADGRELELHSLGFDHFGEGHHHHHH
MHIYRYEENPLITPEDVPPHHDGFEVIGAFNAGVARFQGEVLLLLRVAERPVSDDPNIVKAPVWNPKTGKVDVYEFRKDDPRYDFSDPRVIREAGAERFAYLTSLSYLRLARSQDGRRFVIDDRPFVYPSNELETFGIEDPRITYIDGTYYIYFSAVSPKGVGEAMVSTTDFRTVTHHGMIFAPENKDVLIFPEKINGKYYALHRPVPRSNGRPEVWIAESENLLHWGNHRFLFGLREGKWDSARIGGGAVPIKTEYGWLELYHGASDDHRYCMGAVLLDLNDPAKVIARSERPLVEPEADYEVNGFFGRVVFSCGALVDGDIVKMYYGAADTSMACVELKLDEILDSLVKV
MAHHHHHHMGGVRIARCNPKLLDFVTWAVMKGCRLFQRVHVTPLGLVATERIPEFDFVAVVPVEATQSLLSIADDPSFALKVSAERHGEPVPFWEDLTRGSFAFLGFLTKALLTGHPRGVQTYLDVLPFDPAMPIGKMADAAQTTKGYKEWAAPLVAQCKVEESDFNAAFRHAYCLFRRHAIPLWSTSDASGSGHPYFQQSPYARRGQGELMGMVPVMDLALHSPQPNAMIGYPDEEMLQWLSLHKKAAVQQEKGYFVMQAFRDIEEGEVISVNKNAYFNFDDDAFEAWFGYPNVSQVPAEGSGELSSGCKPNGGEGAAVNCAL
MAVSLSKGGNVSLSKEAPGLTGIVVGLGWDPRATDGQAFDLDGSVFLLDAGGKVRGDSDFIFYNNKTSSDGSVEHTGDNTTGAGEGDDETVKIDLSKVPADVDKIAVCVTIHEAETRNQNFGQVSKAYIRVMNQTGGAEIARYDLSEDASTDTAMIFGEVYRHGSDWKFKAVGQGYAGGLAPLARNYGVNV
CLAEGTRIFDPVTGTTHRIEDVVYGRKPIHVVAAAKDGTLHARPVVSWFDQGTRDVIGLRIAGGAIVWATPDHKVLTEYGWRAAGELRKGDRVAVRDVETGELRYSVIREVLPTRRARTFDLEVEELHTLVAEGVVVHN

Soluble on expression in E. coli, not soluble:
FASVLQGVFEYPYGCAEQTASKGYAALWLDDATIRSLGIQGVTPAQRLERLEGALGRLASLQTTNGHFSMWGGNSDVNPVLTPYIAGFLLDAKDAGFAVSDAVLQKALNRLSEDLLSGAHLFYGNDQSEALMFAHQAWSGYVLARVNRAPLGTLRTLYDNERGKAVSGLSLVHLGVALSLQGDRKRGEAAIEAGFAKSEGGRPEVFGDYGSVIRDNALMIALVRAHGLAKPAYEARVMALGRDLQARRRSGWLWLSTQEQVALAQ
MSAAVQKRASTNTVAATTYFKPAPSEIAWGKMRFLITDRPNNSSIQSYIEELEKHGARAVVRVCEPTYDTLALKEAGIDVLDWQFSDGSPPPPEVIKSWFQLCMTSFKEHPDKSIAVHCVAGLGRAPVLVAIALIEAGMKYEDAVEMIRTQRRGALNQKQLKFLETYKANGELRRLRGNVDGKQKSCCIQ
MAIPKLQAYALPESHDIPQNKVDWAFEPQRAALLIHDMQDYFVSFWGENCPMMEQVIANIAALRDYCKQHNIPVYYTAQPKEQSDEDRALLNDMWGPGLTRSPEQQKVVDRLTPDADDTVLVKWRYSAFHRSPLEQMLKESGRNQLIITGVYAHIGCMTTATDAFMRDIKPFMVADALADFSRDEHLMSLKYVAGRSGRVVMTEELLPAPIPASKAALREVILPLLDESDEPFDDDNLIDYGLDSVRMMALAARWRKVHGDIDFVMLAKNPTIDAWWKLLSREVK
MTFLDRTPDIILTMNEEGVIVSQNETARRVFGDVGGKIYSEICKDDTCSVGDRYYSMVAIKGFRRTIVVGRDITERIRLEKELEDRERKFKALAELSPAGILVHHQGTILFVNEALCQIHGYTREELLNRKVWDLIHPDYHDLARAMMQKRLEGEKPVYELKTIRKDGSERWVLVAGGAIDWDGKKSVMAFAIDITDKKMIEQRLAEREELFRSIFNISPAGLYILVGGKFKLVNPAFERITGYSAEELVGMKSLEIVAEEDREFVRRKAIEMLKGRETEPYKYRVVRKDGKIRWVYENVASIAYEGERAALGSVIDITEIEEERKRLEELTSMLELINKTLRHDVLNALTSAMALLEMGIEESNKDYLNKALTSINRAVSIVRNMRAFEDAVKSGELRCIDVGELVSEVAKSFENVSVKGEGRALADEGLRSVVENIVNNAFIHSGTDRVEITVSEGKEWCEIRIADFGIGIPDEIKQRIFEEGFKYGKAAQTGLGLFIARKIVERYAGEIWVEDNEPKGSVFVIRLKKC
MRSISVGLDREESGSDGLCLGLVVLATLAAGFVAGSDVLRCWGFGPATGDVCLWVEAGFWRCPLPGGGADGQGPGFWDAALREARMFCRSCVGLRMIGWRR
MGSDKIHHHHHHMAYRDQSLGELAIAIPRATKLFRELNLDFCCGGKQTLSRAAGKKDLNIDELEAQLEKLAAQPSDARDWREAPLADIIAYIIPRFHDRHREQLPELILMAKKVERVHHDKADCPHGLANQLTAIYNELSQHMMKEERILFPMIGQGMGANAAAPISVMEHEHDDAGRDVEVVKELTNGVVPPEGACNTWRALYSGINEFITDLMEHIHLENNLLFPRALRGE
MGRFRRVLTTAVLTTLLVGGTAGWASASSASVPGGPLPGTAAWLADDFLGRELPDPGTATPAEVAAFFAGLSDVQRHRLAEDHPAVVGNLDGVPVHLRYEANAPAGDRVLAYDPRGRGTIARVAGDLENAAHVSVIVPGSDIDAETFDRTAQRAADLQAAAGDDTAVIAWAGYTTPSGIGPDLATGRLAEAGAERLARLTEGLDAAGLPDPSLFCHSYGSVVCGLAADDTDARDIVVMGSPGMRADDVGALGTDAHVWAAKSPDDWIDRVPNVEFLGLGHGADPTSPGFGATVLPADDVPAHDEYFTPGTSTLAAFAAIADGERPLEHHHHHH
MLRSIICNMCNLSDESKQFEMTPPSSNLSSLFPTGRAVRNPFGKVYFVVILKGKAMVRIDGKSMLLLERTFLFLPPGHLLLRLSCTQDFLFQYLSFSFDFLSDFPLLLKADISNQVTNAPCLPMSPEDFSLIKMYYHFIYHRYLDAECPSEVIKGMLFSLVLEVCRMYSGRNISVEMSRQDKLVDGFFSLLHKYCTQERMAAFYASRLCISDKYLMRSIKKQTGQTFHYWMADFILREAKLMLRSTDLSVTEIADKLSFPNSSSFARFFRKYTGFSPVQFRNEA
MLDLQGLEEIANVQMQLENIISKLNIPIIQKGVFDNEGYLKSIMRGMRDYICFKTSKKKYKTIKAQNVIIHPGSLISTDSVKYFVAGEIIETTKMYARSIGVLKKEWIDDIILNEEFKHNDISSKELEHHHHHH
MRLRLALFSSLLAATFAITGCDQSSETPDNAATISIEHAQGTTLVPLNPQKVVILNPSVLDNADALHIKVAGVPQTSTHLPAFLSKYSGPEYMNTGTLFEPDYEALSQAKPDLIIAGGRAQDAYNKLSAIAPTIALDVDTQHFTQSLTQRTEQLASIFGKEEEAKTLLGNFSSQVNAIKQKSANAGSAMVLMISGGKMSAYTPGSRFGFIFDELGFTPAATFAESGRHGNVVTSEFILNANPDWLFVLDRDNAIGRTEGQSAQQVLDNPLIHKTKAWQNDRIVYLDSASLYIAGGVQSYTQLMNKVSAILDKPVSEQ
